{"source": "paper PMC5467530", "proteins": {"B1": {"name": "ForA (Streptomyces kaniharaensis) (protein)", "chain": "MLKAIVGLNWGDEGKGRMVDNLSAEADYTVRYHGGSNAGHTIHTDQGKFKLHSLPSSVLHPTVTGVLGPGMTVDVEGFLAEFEALREHGVTADRLLVADAASVCFPFHRDLDGAEEERLSDGRYGSTRRGISPAYGDRVMKKTLLVRELFDRENLPARLAAVLDWANERIVRIYGGAPLSLDEVTRWAADVAARLEPHVVDATALLGKALDDGATVIAEGQLGALKDLYYGIYPFTTSSTCLAGHAPVGIGVPWARVDRTIGVTKAFSSCVGAGPFVTEFDEERADRLRRQWGEYGSTTNRPRRLGAFDAVATRYGVRVQGADEVAITNLDQLSGTGELDLCVAYERAGRTVREFSPRPAELAASTPVHETLSGWDEDISGVRTYEQLPAGAREYVEAIQELLGVPVRHVSVGSHRDALIEIK"}}, "substrate": "O=c1[nH]cnc2c([C@@H]3O[C@H](COP(=O)(O)O)[C@@H](O)[C@H]3O)n[nH]c12", "assay": "pyruvate kinase / lactate dehydrogenase coupled assay, NADH oxidation by UV", "type": "biochemical, Streptomyces kaniharaensis", "settings": "2.5 mM L-aspartate, 0.125 mM GTP", "data": [{"protein": "B1", "values": [{"measurement": "Km", "value": "74 ± 25", "unit": "µM"}, {"measurement": "kcat", "value": "0.3 ± 0.033", "unit": "s⁻¹"}]}]}
